Among the data in a protein production outcome set (Wang et al. 2014) are protein production values, retold here.

The nature of this data set: label from the status in PepcDB records.
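Also: failed if final PepcDB status was selected cloned or expressed and not failed if soluble or beyond.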

For the sequence “MSLIADHGFAFLVLACLFGFFMAWGVGANDVANAMGTSVGSRALTIRQAILVAMVFEFCGAYFAGGEVTETIRSGIVDPQYMTPDLLVFGMLSALLAAGVWLLLATIKGWPVSTTHSIVGAIIGFASVGVSVHAVHWGAIGPIVASWVVTPVLSGLLAFALFRSVQWLVLHAEDPFRSARRYVPLYMFLAGFMVALMTVGKGLKHVGLELSGLQTLGLALLAGGLVMGLGIVLLLRIRPTGGADPRGGFASVERVFAVLMIFTACSMAFAHGANDVANAIGPVAAVVAVVQAGGDLDLVSRSPVPSWVLLLGAVGIVIGLATYGYRVIATIGREITELTPSRGFAAELATASTVVGASAIGLPVSTTHTLVGAVLGIGMARGIGALNLRVIGSIFLSWVVTLPAGAVLAILFFLVLRALFGA”, the protein production result is recorded as “failed”.
Then “MSLIAIVLVFIMAIVVTVFLSHLLPVKVPLPLIQIAAGAALAASGFQVDFDPHIFLLLFIPPLLFLDGWRIPKDAFFRDMKPILSLAIGLVMVTILGIGLFIHWLIPAITVAAGFALAAILSPTDPVAVSAMTASSPLPSRMAHILEGESLLNDASGLVAFNFAIAAVLTGSFSPGDAVVKFFLMAFGGILSGLVVVWVTGKCNNFLVRRTREEPAIQILISLLIPFAAYLLAEAFHVSGILAAVAAGIAMHYEQLSGPRLPATRMKSSAVWSMLQTTLNGMIFLMLGEQLPRMLRTLPAVASQAGVSSPWYLLLYAVAITLALGLMRFAWVWLSMKLTIFRRKRRGKAITVRPRFSILAVMALAGVKGSVTLAGILTLPVVLADGSPFPGRELLIFLSMAVILMSLVVAAIGLPFMTRYLADDLPHDTGKDDIGAVMTEVAINRLNALLDEPVEDPSEQALRADAGNMLLETYQRRLHYNDNDEGQDVGLELAKRARLEKYMQREVIIAQRQELFRLRRAHNISDITFYEVLREIDLKEESLR”, with “failed”; and “MSLIDFHVHLDLYPDPVAVARACEERQLTVLSVTTTPAAWRGTLALAAGRPHVWTALGFHPEVVSERAADLPWFDRYLPETRFVGEVGLDGSPSLRGTWTQQFAVFQHILRRCEDHGGRILSIHSRRAESEVLNCLEANPRSGTPILHWYSGSVTELRRAISLGCWFSVGPTMVRTQKGAALIRSMPRDRVLTETDGPFLELDGQAALPWDVKSVVEGLSKIWQIPASEVERIVKENVSRLLGTVREGHHHHHH”, with “not failed”.
As for “MSLIIDGHTHVILPVEKHIKIMDEAGVDKTILFSTSIHPETAVNLRDVKKEMKKLNDVVNGKTNSMIDVRRNSIKELTNVIQAYPSRYVGFGNVPVGLSENDTNSYIEENIVNNKLVGIGELTPASGQIKSLKPIFKYSMDSGSLPIWIHAFNPLVLQDIKEIAELCKAFPKVPVILGHMGGSNWMTAVELAKEIQNLYLDTSAYFSTFVLKIVINELPLKCIFGTDMPFGDLQLSIEAIKKMSNDSYVANAVLGDNISRLLNIEGHHHHHH”, the protein production result is reported as “not failed”.
Then “MSLIIQVSPAGSMDLLSQLEVERLKKTASSDLYQLYRNCSLAVLNSGSHTDNSKELLDKYKNFDITVMRRERGIKLELANPPEHAFVDGQIIKGIQEHLFSVLRDIVYVNMHLADSQRLNLTNATHITNLVFGILRNAGALIPGATPNLVVCWGGHSINEVEYQYTREVGHELGLRELNICTGCGPGAMEGPMKGAAVGHAKQRYSEYRYLGLTEPSIIAAEPPNPIVNELVIMPDIEKRLEAFVRMAHGIIIFPGGPGTAEELLYILGIMMHPENADQPMPIVLTGPKQSEAYFRSLDKFITDTLGEAARKHYSIAIDNPAEAARIMSNAMPLVRQHRKDKEDAYSFNWSLKIEPEFQLPFEPNHESMANLDLHLNQRPEVLAANLRRAFSGVVAGNVKAEGIREIERHGPFEMHGDPVLMKKMDQLLNDFVAQNRMKLPGGSAYEPCYKIVTEGHHHHHH”, with “not failed”.
Then “MSLILCIDVGNSHIYGGVFDGDEIKLRFRHTSKVSTSDELGIFLKSVLRENNCSPETIRKIAICSVVPQVDYSLRSACVKYFSIDPFLLQAGVKTGLNIKYRNPVEVGADRIANAIAATHSFPNQNIIVIDFGTATTFCAISHKKAYLGGAILPGLRLSADALSKNTAKLPSVEIIKTESVVGRSTIESIQSGVYYGVLGACKELIQRIHHEAFNGDQILILATGGFASLFDKQGLYDHLVPDLVLQGIRLAAMMNTAEGHHHHHH”, with “not failed”; and “MSLIRWLVERWLEFMGNHPFLFGTLAILIVLFFIFEGQRNGRKISPQSLGILIKAKNAQLIDLRDAKDFREGHISGSRNIPYSQITSHVDELKASERPLVFICNLGQVAGSALQKIGHADSYRLDGGISNWKAQGLPLVKAKTKA”, with “failed”.
Then “MSLKDVSLSSFDAHDLDLDKFPEVVRDRLTQFLDAQELTIADIGAPVTDAVAHLRSFVLNGGKRIRPLYAWAGFLAAQGHKNSSEKLESVLDAAASLEFIQACALIHDDIIDSSDTRRGAPTVHRAVEADHRANNFEGDPEHFGVSVSILAGDMALVWAEDMLQDSGLSAEALARTRDAWRGMRTEVIGGQLLDIYLESHANESVELADSVNRFKTAAYTIARPLHLGASIAGGSPQLIDALLHYGHDIGIAFQLRDDLLGVFGDPAITGKPAGDDIREGKRTVLLALALQRADKQSPEAATAIRAGVGKVTSPEDIAVITEHIRATGAEEEVEQRISQLTESGLAHLDDVDIPDEVRAQLRALAIRSTERREGHHHHHH”, with “not failed”.
Consider “MSLKENKYDDKHFFEQYSQMPRSKEGLKAAGEWHELKKMLPDFNQKTVLDLGCGFGWHCIYAAEHGAKKVLGIDLSERMLTEAKRKTTSPVVCYEQKAIEDIAIEPDAYNVVLSSLALHYIASFDDICKKVYINLKSSGSFIFSVEHPVFTADGRQDWYTDETGNKLHWPVDRYFNESMRTSHFLGEDVQKYHRTVTTYIQTLLKNGFQINSVIEPEPAPELKDLPEMQDEYRRPMMLLISATKQEGHHHHHH”, for which the protein production entry is “not failed”.
The entry for “MSLKHYSIQPANLEFNAEGTPVSRDFDDVYFSNDNGLEETRYVFLGGNQLEARFPEHPHPLFVVAESGFGTGLNFLTLWQAFDQFREAHPQAQLQRLHFISFEKFPLTRADLALAHQHWPELAPWAEQLQAQWPMPLPGCHRLLLDEGRVTLDLWFGDINELISQLDDSLNQKVDAWFLDGFAPAKNPDMWTQNLFNAMARLARPGGTLATFTSAGFVRRGLQEAGFTMQKRKGFGRKREMLCGVMEQTEGHHHHHH” is “not failed”; for “MSLKIAVTGGTGFLGQYVVESIKNDGNTPIILTRSIGNKAINDYEYRVSDYTLEDLINQLNDVDAVVHLAATRGSQGKISEFHDNEILTQNLYDACYENNISNIVYASTISAYSDETSLPWNEKELPLPDLMYGVSKLACEHIGNIYSRKKGLCIKNLRFAHLYGFNEKNNYMINRFFRQAFHGEQLTLHANSVAKREFLYAKDAAKSVIYALKQEKVSGTFNIGSGDALTNYEVANTINNAFGNKDNLLVKNPNANEGIHSSYMDSSKAKELLDFSTDYNFATAVEEIHLLMRGLDDVPLWYEGHHHHHH” it is “not failed”.
Then “MSLKICVIGSSGHFRYALEGLDEECSITGIAPGVPEEDLSKLEKAISEMNIKPKKYNNWWEMLEKEKPDILVINTVFSLNGKILLEALERKIHAFVEKPIATTFEDLEKIRSVYQKVRNEVFFTAMFGIRYRPHFLTAKKLVSEGAVGEIRLVNTQKSYKLGQRPDFYKKRETYGGTIPWVGIHAIDWIHWITGKKFLSVYATHSRLHNSGHGELETTALCHFTLENEVFASLSIDYLRPQGAPTHDDDRMRIVGTRGIVEVINERVFLTDEKGHREVPLVEKGQIFEDFLREIRGQGKCMVTPEDSILTTEIALKARLSADTGQIVLIEGHHHHHH”, with “not failed”; and “MSLKISLENVGCASQIGKRKENEDRFDFAQLTDEVLYFAVYDGHGGPAAADFCHTHMEKCIMDLLPKEKNLETLLTLAFLEIDKAFSSHARLSADATLLTSGTTATVALLRDGIELVVASVGDSRAILCRKGKPMKLTIDHTPERKDEKERIKKCGGFVAWNSLGQPHVNGRLAMTRSIGDLDLKTSGVIAEPETKRIKLHHADDSFLVLTTDGINFMVNSQEICDFVNQCHDPNEAAHAVTEQAIQYGTEDNSTAVVVPFGAWGKEGHHHHHH”, with “not failed”.
